Experimental data taken from US20230049752A1 (University of California, published 2023).

B1: AB S7 (antibody, V domains shown)
VH: QVQLVQSGAEVKKPGASVKMSCKASGYTFTTYTIHWVRQAPGQGLEWIGFINPSSGYTEYAQKFQGRVTLTADKSTSTVYMELSSLRSEDTAVYFCANGDYYVAYWGQGTLVTVSS
VL: DIQLTQSPSSLSASVGDRVTMTCTASSSVSSTYFHWYQQKPGKAPKLWIYSTSNLASGVPSRFSGSGSGTDYTLTISSMQPEDAATYYCHQYHRSPLTFGQGTKLEIK
B2: AB S12 (antibody, V domains shown)
VH: QVQLVQSGAEVKKPGASVKMSCKASGYTFTTYTMHWVRQAPGQGLEWIGFINPSSGYTEYAQKFQGRVTLTADKSTSTVYMELSSLRSEDTAVYFCANGDYYVGYWGQGTLVTVSS
VL: DIQLTQSPSSLSASVGDRVTMTCTASSSVSSTYFHWYQQKPGKAPKLWIYSTSNLASGVPSRFSGSGSGTDYTLTISSMQPEDAATYYCHQYHRSPLTFGQGTKLEIK
B3: AB S11 (antibody, V domains shown)
VH: QVQLVQSGAEVKKPGASVKMSCKASGYTFTTYTIHWVRQAPGQGLEWIGVINPSSGYTEYAQKFQGRVTLTADKSTSTVYMELSSLRSEDTAVYFCANGDYYVAYWGQGTLVTVSS
VL: DIQLTQSPSSLSASVGDRVTMTCTASSSVSSTYFHWYQQKPGKAPKLWIYSTSNLASGVPSRFSGSGSGTDYTLTISSMQPEDAATYYCHQYHRSPLTFGQGTKLEIK
B4: AB S9 (antibody, V domains shown)
VH: QVQLVQSGAEVKKPGASVKMSCKASGYTFTTYTIHWVRQAPGQGLEWIGVINPSSGYTDYAQKFQGRVTLTADKSTSTVYMELSSLRSEDTAVYFCANGDYYVGYWGQGTLVTVSS
VL: DIQLTQSPSSLSASVGDRVTMTCTASSSVSSTYFHWYQQKPGKAPKLWIYSTSNLASGVPSRFSGSGSGTDYTLTISSMQPEDAATYYCHQYHRSPLTFGQGTKLEIK
B5: AB S8 (antibody, V domains shown)
VH: QVQLVQSGAEVKKPGASVKMSCKASGYTFTTYTMHWVRQAPGQGLEWIGVINPSSGYTEYAQKFQGRVTLTADKSTSTVYMELSSLRSEDTAVYFCANGDYYVGYWGQGTLVTVSS
VL: DIQLTQSPSSLSASVGDRVTMTCTASSSVSSTYFHWYQQKPGKAPKLWIYSTSNLASGVPSRFSGSGSGTDYTLTISSMQPEDAATYYCHQYHRSPLTFGQGTKLEIK
B6: AB S10 (antibody, V domains shown)
VH: QVQLVQSGAEVKKPGASVKMSCKASGYTFTTYTMHWVRQAPGQGLEWIGFINPSSGYTEYAQKFQGRVTLTADKSTSTVYMELSSLRSEDTAVYYCANGDYYVGYWGQGTLVTVSS
VL: DIQLTQSPSSLSASVGDRVTMTCTASSSVSSTYFHWYQQKPGKAPKLWIYSTSNLASGVPSRFSGSGSGTDYTLTISSMQPEDAATYYCHQYHRSPLTFGQGTKLEIK
B7: AB S4 (antibody, V domains shown)
VH: EVQLLESGGGLVQPGGSMRLSCAASGFTFSNYWMNWVRQAPGKGLEWIAQIRLKSDNYATHYTDSVKGRFTISRDDSKSTVYLQMNSLRAEDTGTYYCNDGPPSGSWGQGTLLTVSS
VL: DIQMTQSPSSLSASVGDRVTITCRISENIYSYLAWYQQKPGKAPKLLVYNAKILVEGVPSRFSGSGSGTDFTLTISSLQPEDFGTYYCQHHYTVPWTFGQGTKLEIK
B8: AB S1 (antibody, V domains shown)
VH: EVQLLESGGGLVQPGGSMRLSCAASGFTFSNYWMNWVRQAPGKGLEWIAQIRLKSDNYATHYTDSVKGRFTISRDDSKRTVYLQMNSLRAEDTGTYYCSDGPPSGSWGQGTLLTVSS
VL: DIQMTQSPSSLSASVGDRVTITCRISENIYSYLAWYQQKPGKAPKLLVYNAKILVEGVPSRFSGSGSGTDFTLTISSLQPEDFGTYYCQHHYTVPWTFGQGTKLEIK
B9: AB S6 (antibody, V domains shown)
VH: EVQLLESGGGLVQPGGSMRLSCAASGFTFSNYWMNWVRQAPGKGLEWLAQIRLKSDNYVTHYADSVKGRFTISRDDSKRTVYLQMNSLRAEDTGTYYCNDGPPSGSWGQGTLLTVSS
VL: DIQMTQSPSSLSASVGDRVTITCRISENIYSYLAWYQQKPGKAPKLLVYNAKILVEGVPSRFSGSGSGTDFTLTISSLQPEDFGTYYCQHHYTVPWTFGQGTKLEIK
B10: AB S2 (antibody, V domains shown)
VH: EVQLLESGGGLVQPGGSMRLSCAASGFTFSNYWMNWVRQAPGKGLEWIAQIRLKSDNYATHYADSVKGRFTISRDDSKRTVYLQMNSLRAEDTGTYYCSDGPPSGSWGQGTLLTVSS
VL: DIQMTQSPSSLSASVGDRVTITCRISENIYSYLAWYQQKPGKAPKLLVYNAKILVEGVPSRFSGSGSGTDFTLTISSLQPEDFGTYYCQHHYTVPWTFGQGTKLEIK
B11: AB S5 (antibody, V domains shown)
VH: EVQLLESGGGLVQPGGSMRLSCAASGFTFSNYWMNWVRQAPGKGLEWLAQIRLKSDNYATHYTDSVKGRFTISRDDSKRTVYLQMNSLRAEDTGIYYCSDGPPSGSWGQGTLLTVSS
VL: DIQMTQSPSSLSASVGDRVTITCRISENIYSYLAWYQQKPGKAPKLLVYNAKILVEGVPSRFSGSGSGTDFTLTISSLQPEDFGTYYCQHHYTVPWTFGQGTKLEIK

Legend:
[1] = target: human Claudin-6 (CLDN6) (human) (UniProt P56747); assay: FACS, limiting dilution, OV90 cells
[2] = target: human Claudin-6 (CLDN6) (human) (UniProt P56747); assay: FACS, limiting dilution, ARK2 cells
[3] = target: human Claudin-6 (CLDN6) (human) (UniProt P56747); assay: FACS, limiting dilution, UMUC4 cells

Row | Binder | FACS signal at 0.32 nM [1] | FACS signal at 1.6 nM [1] | FACS signal at 8 nM [1] | FACS signal at 40 nM [1] | FACS signal at 200 nM [1] | FACS signal at 1000 nM [1] | FACS signal at 0.32 nM [2] | FACS signal at 1.6 nM [2] | FACS signal at 8 nM [2] | FACS signal at 40 nM [2] | FACS signal at 200 nM [2] | FACS signal at 1000 nM [2] | FACS signal at 0.32 nM [3] | FACS signal at 1.6 nM [3] | FACS signal at 8 nM [3] | FACS signal at 40 nM [3] | FACS signal at 200 nM [3] | FACS signal at 1000 nM [3]
1 | B1 | 586 | 1910 | 4500 | 8570 | 24000 | 53900 | 876 | 2350 | 6290 | 16000 | 47000 | 78700 | 1440 | 1790 | 3940 | 7970 | 16700 | 37300
2 | B2 | 638 | 1260 | 4630 | 14600 | 38300 | 83400 | 1310 | 2080 | 8850 | 22900 | 62300 |  | 947 | 1910 | 5040 | 14800 | 37500 | 
3 | B3 | 1460 | 4950 | 14700 | 44900 | 85600 |  | 2130 | 6100 | 20200 | 59400 |  |  | 2350 | 2770 | 7000 | 12800 | 19900 | 33400
4 | B4 | 2940 | 14000 | 48500 |  |  |  | 2990 | 16400 | 54600 |  |  |  | 1910 | 11600 | 19200 | 23900 | 35600 | 
5 | B5 | 834 | 6410 | 26700 | 85900 |  |  | 1640 | 10400 | 42600 |  |  |  | 720 | 6220 | 7200 | 16600 | 32900 | 40500
6 | B6 | 862 | 4690 | 16300 | 50400 | 87900 |  | 2080 | 7690 | 27500 | 68200 |  |  | 874 | 2540 | 6850 | 9940 | 22200 | 35100
7 | B7 | 432 | 515 | 1360 | 4590 | 15900 | 42000 | 354 | 438 | 1720 | 6350 | 31500 | 62500 | 518 | 651 | 1300 | 4120 | 13500 | 35000
8 | B8 | 475 | 668 | 2390 | 10500 | 43500 |  | 466 | 1380 | 3850 | 25800 | 62500 |  | 639 | 767 | 2330 | 6680 | 18700 | 41500
9 | B9 | 467 | 791 | 2950 | 12600 | 38600 | 76600 | 448 | 765 | 3800 | 14600 | 54100 |  | 1320 | 1690 | 3300 | 4120 | 12500 | 42300
10 | B10 | 537 | 1510 | 3950 | 18100 | 53400 |  | 608 | 956 | 4840 | 21000 | 83400 |  | 505 | 746 | 2270 | 6970 | 20000 | 
11 | B11 | 558 | 1040 | 5220 | 22500 | 73300 |  | 372 | 997 | 5560 | 25600 | 78800 |  | 481 | 885 | 2340 | 7080 | 19000 | 47200
